Assay results taken from the supplement of paper PMC12636428.

Test system: Saccharomyces cerevisiae
Assay: transcriptional activation domain activity (GFP:mCherry ratio, weighted mean of sorted bins, harmonized to initial dataset scale) (arbitrary fluorescence ratio units); higher = stronger transcriptional activation
Settings: beta-estradiol 1 µM; induction time 4 h
Protocol: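 53-aa protein tiles (fungal proteins plus yeast TF control tiles) fused C-terminally to a DBD-estrogen-binding domain-mCherry synthetic TF, integrated in S. cerevisiae (URA3 locus) with a GFP reporter. Cells were induced with 1 uM beta-estradiol for 4 h at 30 C, FACS-sorted into 8 bins by GFP:mCherry ratio and barcodes sequenced. Activity is the read-weighted mean bin fluorescence (GFP:mCherry), averaged over barcodes (median 12); tiles under 50 reads were discarded. New active-learning values were harmonized by linear fit onto the scale of the initial (Hummel et al.) dataset. The assay saturates at low and high signal.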

## EKGEGDKNRRGRRRGGRGRGGGGDKDKEKDKEGGGGGGRGERKTEGSGGISAQ
  transcriptional activation domain activity: 42000

## EKGGGRDGETAAVEGEKEVQNGDAQTEADGNASTDGGTKRRRKGKKAAAEADD
  transcriptional activation domain activity: 24100

## EKGGRDKDKDGRPANAKPKSKPHGKTPKPQQQRDGKKSATLKENAAPAAPAAA
  transcriptional activation domain activity: 24800

## EKGKSIWIGRDNLEVNVETLALQWYEDQGFKGIHSETRIITTLFGILFWDIIF
  transcriptional activation domain activity: 55900

## EKGNKRNDEEKGRGGEGRSTGRERREAKNGSAEGEGRERKQRRDGGEAGEGGT
  transcriptional activation domain activity: 45400

## EKKAPGRRGRPPKAAAAKKAKEAAAPGEEGAKPKRPVGRPRKGTTETAEKKGA
  transcriptional activation domain activity: 22300

## EKKEGAEKEGGEKKEAGGEGEKKVGGEGEKKEGGEGEMKESGVEGGKKEASES
  transcriptional activation domain activity: 26600

## EKKEKSSRKSTSRAAANGTAEKASKGEASSKKSRGASRPRSPKKTRSPAGRPA
  transcriptional activation domain activity: 24500

## EKKERAAEPIAEITTEAAAEPKAAAEEATPKKDKKEKKSKKEKKTEESAVTSE
  transcriptional activation domain activity: 34600

## EKKGKEGKRMRREKREIKEPEEKWEEKKKKPEEPEDVGARPRKPRREESKSRA
  transcriptional activation domain activity: 37600

## EKKRKRTEEEDAPKLKKKKTKSDLKRDSGGSSQEDSEAPAKKKKSSKSKKAKK
  transcriptional activation domain activity: 35800

## EKKRLLREKNKKRKRGEEVSDDEEEQKEEAAKKAKSEKEDSKHGIWVGNLHFS
  transcriptional activation domain activity: 50100

## EKKVKAPKSPKKEKKKEEAEAAAPATEEPAKDEEPAAAEAPAAEEAPKEEAAA
  transcriptional activation domain activity: 41200

## EKKVKTPKSPKKEKKKEEPAAAPAAAAEEPAKEEAAAPAEAAVAPTEEPAKVE
  transcriptional activation domain activity: 42200

## EKLVEEVQETPKDKKKRKRDVEAEDVEASAKSEKKLKKKKSKSSAEEAAPADA
  transcriptional activation domain activity: 30900

## EKLVMNILEAVRLFHSIFDGLIAKALDEFAHLSRQARTMLSFFVIHIHLGVLH
  transcriptional activation domain activity: 71300

## EKNEKPAPVAPAEGAVAEAKEGKSQKKEKKEKKPAEEGSSSKKGGKSAPAAAE
  transcriptional activation domain activity: 33700

## EKNKAEKKVKTPKSPKKEKKKEEPAAAAVEEPAKEEAAPAEAPAAPVEEPAKV
  transcriptional activation domain activity: 22800

## EKPAEAAPAEAIPAEPEAVEEEKPKSPAPTPAAAPAKGTTPSPEKENVAPAKA
  transcriptional activation domain activity: 24800

## EKPKPEESPKGRGKSSGEPAPIPPSNGAADSKPSSAGAGNGSGSGSGDGGRKG
  transcriptional activation domain activity: 39800

## EKQKKKRKRGKRRRRRRNEKEEKEGEEEEEEKQEAKEEAKEEAKEEAKKKEKK
  transcriptional activation domain activity: 24600

## EKRGAAKRADRSRSRSRGRSRGAKDVARRRRRNSSADSHEAREHRRQGKRGRS
  transcriptional activation domain activity: 44700

## EKRGLDTKNIYVGAEPFDAELRQRLESEQSFSFRSTDIIHFVAMLLIRYLFDL
  transcriptional activation domain activity: 59300

## EKRHEKKKGSRDISGADDRSSGRSKDRRDHSSRGSSRKRHGSRRDKDRDLEDG
  transcriptional activation domain activity: 25700

## EKRYGPMLDPKNPLHYMWQLVYNILSLKLHIMLLFRYASNMHRIMPERLRQTV
  transcriptional activation domain activity: 58300

## EKSEGANGEAGGEGSRRRASGRGRLRGRGRNGRGGRGGRAGETTDDKKEGEAT
  transcriptional activation domain activity: 26100

## EKSQNNSNVINETIDHTDIHAHHADAHDDSFIESEEWLSKFIMDSQIDNDLKL
  transcriptional activation domain activity: 139000

## EKTEKKAKAPKSPKKEKKKEASETAAAPATEEPAKEAAKEEAAPATEAPAATE
  transcriptional activation domain activity: 31300

## EKTKRKKKSATGATKRAGSGEAKPKRQRKKKGRRGESGDEEESGDEEGAERRA
  transcriptional activation domain activity: < 6570

## EKTRRNREKREKKKNKGKGGKGGGGGGNGGGGGGSGNAATVTAAAENGAGKKE
  transcriptional activation domain activity: 30900

## EKTVEQPEELKETGGKEPRIERKLPLQYDHHQRKTRDNQMFQLAVVIYFLGKL
  transcriptional activation domain activity: 40300

## EKVGTLWRARDVNERRQAKASGAAGGAAKATKPAGAAAASGAKPKATGAAGAA
  transcriptional activation domain activity: 21900

## EKVKEEEEVKYKGKEQEEVKDKGKEQEQEQEQEQEQEQEQEAPAPPRTTTSTA
  transcriptional activation domain activity: 40900

## ELENQSSLYYLPIHEETPFFIDLIPNGFYLETKRSADNLFGLFTDRAIENRDP
  transcriptional activation domain activity: 83800

## ELGAIEESKLCIVLLGTFRLLSFDCRTFAKYVRPLSLERLFNHTSRIVRLLAI
  transcriptional activation domain activity: 44000

## ELGFVEIVQVSPRFGILLLCMTLSMISIIVDLLSVTPVIPIGVINPFWKFAFV
  transcriptional activation domain activity: 39800

## ELGLGSWWVFIVLGHTSVLLELAPRYSFALYFLPVFLLTVTVVSFFFAFVLYL
  transcriptional activation domain activity: 41100

## ELGLLADIMQHEIQGFWGLIKILAKRRKNKYHANMADVNMRSVFQKAFTSWMM
  transcriptional activation domain activity: 44500

## ELGSFRLLSFRVWCLLGTGSFWGLLYTAIAKMDGYTFGFLLQAHHVLKLLLVS
  transcriptional activation domain activity: 54400

## ELILVQDLCGTFCCSMQFLVLMDLLGNVVLPSSVIFFYYLIFAYFFGYPVAMP
  transcriptional activation domain activity: 60100

## ELKDGGGGESSPIEIADRVVVEECDMEKVALDRTLGRLWRGWRKRLRSPATPV
  transcriptional activation domain activity: 65100

## ELKEGDPKVCAGKAVNEKGEVVDKDGNVIGKVDVVPGEAAFEAMKALKERLGE
  transcriptional activation domain activity: < 6570

## ELKKFADGVDRERKERAKSANGCCGFCGREEEALPKCGRCKETRYCSPSVRAC
  transcriptional activation domain activity: 33000

## ELLCIDRETGETRFVEPKVPDGISLRNFGIQVVSSCVLLLLVSLRPPHVLCAC
  transcriptional activation domain activity: 53600

## ELLDELLARNKSLVILVLDQIFMFILAWNRDYDRYDIQKIIGLYYIQSNVSLF
  transcriptional activation domain activity: 52100

## ELLESTEREGGRGLRPAKAEVREGGLDGVVGGLEDLRGGRVSGRKLVYRVGTE
  transcriptional activation domain activity: 35700

## ELLLLWYIYFLGIQYAQDFCQYKKMLILTEDTMWGWDLYSFYNSIVFHGTGVP
  transcriptional activation domain activity: 75000

## ELLNAIVLVHMKLETGDLPPIVSRHIGRFAEQVLSKTPIHLIVTTSFRTLHKI
  transcriptional activation domain activity: 73400

## ELLRVLNKAHIYLMCLYLFSGLDAHMGILRDFKLIDSHYRLSLHTLICVLVSW
  transcriptional activation domain activity: 71000

## ELLSVLIPPSPAETRGPTTLSTSPSFNEHGVVAEASFLSSILELGIKHPKSNN
  transcriptional activation domain activity: 27900

## ELLVLLDQHWNYSRLRYPICFLSRTASEMLTFVRSMMEWLGGTVSKEDVGEDG
  transcriptional activation domain activity: 25800

## ELLYKSYLCHLFSFFFPFPFYNIFNIIVHLFFFFLSFLSFFYYFNIYSCLYIY
  transcriptional activation domain activity: 69800

## ELNEYLDLFKNNFLPHFPIIHPSLLDLDLDSLQRYTNEDGYDDAENAQLFDRL
  transcriptional activation domain activity: 117000

## ELPKKCDDKYWEHGDNYQEAIRQLPTKPSLVEFFNCLITLNRILALTLRMLYS
  transcriptional activation domain activity: 55200

## ELQKLLKFKVDDKKYPRFSPMFYPNNVKKDKLLFRVRLLVNILRVVLLGPSSL
  transcriptional activation domain activity: 36100

## ELRNHMSAIIDICWGACGTYKGVELWLEWDRNDNVPFHDSLWRVVRFVIFVNH
  transcriptional activation domain activity: 63200

## ELSHPSALFCYILFRLFPIFMYLFGHLVLMLVTQESWFILYFIVLILLVAADF
  transcriptional activation domain activity: 60500

## ELVVLRFWSLKAIVFFFVLVLQTVSLGAGKGGGLYKDLFTLFLHILCILELCC
  transcriptional activation domain activity: 61300

## ELWHSLYMLFKTYWCRLLHYALSLVLLCSFIVRLVSVIAILDSKRCGLTLFAA
  transcriptional activation domain activity: 73200

## ELYGKPSMEAIFLLFAHYLYAGACAKGEHLIITTWDMYYEKLGFMLIFWNMAG
  transcriptional activation domain activity: 64300

## ELYIYSTVRYSFSDYLIPSGYNVCAFLLSCLMFNGDLMVELVLVMRSWFKRIL
  transcriptional activation domain activity: 66500
